Measurements reported in article PMC9258321, “Structure-guided design of CPPC-paired disulfide-rich peptide libraries for ligand and drug discovery†” (Chemical Science, 2022).
Ends that are not written are not given here.

Molecular target: T1, Kelch domain of Keap1
T1 construct: Keap1, Kelch domain; The Kelch domain is named for the phage selection; the SPR sentences say only 'Keap1'
Assay: SPR; Keap1 with oxidized peptides, concentration-dependent
Conditions: both partners purified

B1: drp5-a (peptide)
chain: CPPCHGRPTCDEETGECWELLTCPPC
modifications: disulfide (positions not given here); also: oxidized (disulfides), pairing of this isomer not given here
Kd: 153 nM
